# Experimental data published in PMC4342241, “Antimicrobial Characterization of Site-Directed Mutagenesis of Porcine Beta Defensin 2” (PLoS ONE, 2015).
# Where no end group is shown, it is not given here.
# How the values were obtained:
# porcine erythrocytes = assay: Hemolytic activity assay (release of hemoglobin); format: cell-based; conditions: 0~80 μg/ml, 37°C for 1 h
# Procedure: The release of hemoglobin from porcine erythrocytes was used as a measure for the hemolytic activity of defensin as described before. 1mL fresh porcine blood was centrifuged at 1800 g for 10 min for collecting erythrocytes in the presence of heparin to prevent coagulation. The pellet was washed three times and re-suspended in saline solution at the proportion of 1:9. Subsequently, 100 μL erythrocyte solution was mixed with 100 μL of individual mutated defensins (final concentrations were 0~80 μg/ml) in polypropylene 96-well microtiter plates. After incubation at 37°C for 1 h, the plate was centrifuged at 1800 g for 5 min. 100 μL supernatant was transferred to a new 96-well plate separately and the absorbance was measured at 450 nm (reference 630 nm) using a microplate reader. The hemolysis ratio was calculated by comparison with the control samples containing no peptide or 1% Trition-100 [24–25].
# Different concentrations of mutant pBD2 protein (100 μL) were separately incubated with erythrocytes (100 μL) at 37°C for 1 h. Less than 10% hemolysis ratio was found at all different concentrations of mpBD2-1~8 (data not shown). No significant differences were observed among different concentrations or among different mutants (P > 0.05).
# [1] = cited from earlier work
# Source text: In this report, eight amino acids of pBD2 were selected for substitution by arginine or lysine based on rational analysis. It was hypothesized that the major factor defining the antimicrobial activities of defensins was their cationicity or isoelectric point (pI) values. Indeed, the antimicrobial activities of defensins increased with their net charges. Harder et al reported that human beta defensin 3 (hBD3) had the strongest activity among hBD1, 2 and 3, because it had the most net positive charges (hBD1, 2 and 3 has +5, +6, and +11 net pos ...
substance,measurement,setting,value
Porcine β defensin 2 [pBD2],hemolytic activity (in words),porcine erythrocytes,low hemolytic activities
"hBD2: human beta defensin 2 (GIGDPVTCLKSGAICHPVFCPRRYKQIGTCGLPGTKCCKKP; ends and bridges not checked; cysteine pairing not given here; UniProt O15263 24-64, looked up)",net positive charges,[1],+6
"human beta defensin 3 (GIINTLQKYYCRVRGGRCAVLSCLPKEEQIGKCSTRGRKCCRRKK; ends and bridges not checked; cysteine pairing not given here; UniProt P81534 23-67, looked up) [hBD3]",net positive charges,[1],+11
"human β defensin 1 (DHYNCVSSGGQCLYSACPIFTKIQGTCYRGKAKCCK; ends and bridges not checked; cysteine pairing not given here; UniProt P60022 33-68, looked up) [hBD1]",net positive charges,[1],+5
